Reference: patent US12559745B2, “Methods and compositions for linking RNA stem loops” (THE REGENTS OF THE UNIVERSITY OF CALIFORNIA, priority 2020, dated 2026)
Values joined by “and” are separate entries in the source; they are usually repeats but may differ in a detail not shown here. Identical values can stand only once. “Also recorded” adds a separate entry of the source.

What was measured:
[1] = test system: 60 bp DNA substrate containing the sgRNA-9 target sequence; test: In vitro binding assay, Cas9-sgRNA-DNA ternary complex formation (native PAGE); details: pre-formed RNP plus 20 nM DNA substrate, 37° C., 90 seconds; 5% native TBE-PAGE
[2] = In vitro photo-cleavage (uncaging) assay, LED irradiation followed by denaturing PAGE; type: physicochemical
DYRK1A genome locus = test: CRISPR-Cas9 gene editing in Cas9-expressing HEK-293 cells, INDEL rate by Sanger sequencing / ICE tool; type: cell-based; details: for gene editing activity (INDEL rate) of unmodified sgRNA: unmodified (linear) sgRNA with Tag sequence(s), transfected into Cas9-expressing HEK-293 cells, compared with wild-type sgRNA
Source text: We asked whether RNA-CLAMP could be used to control CRISPR-Cas9 editing via cyclization of the sgRNA. The sgRNA is highly structured when in complex with dCas9 and target DNA, forming three stem loops and one tetraloop, with some of the stem loops being tolerant to mutations.^[18] A sgRNA contains four stem-loops and two free ends (FIGS. 3A and 3B). We screened the 17-nt Tag recognition sequence (GCAGACUGUAAAUCUGC) (SEQ ID NO:1) at all 6 potential labeling sites within the sgRNA: insertion at the 5′-end (sgRNA-1) or 3′-end (sgRNA-6) and substituting the 17-nt Tag stem loop for either the tetra loop (sgRNA-2), stem loop 1 (sgRNA-3), stem loop 2 (sgRNA-4) or stem loop 3 (sgRNA-5) (FIG. 12). All the sgRNAs target the DYRK1A genome locus.^[32] To screen for activity, we transiently transfected the sgRNAs into HEK-293 cells stably expressing Cas9 protein. Three days after transfection, genomic DNA was harvested and the sgRNA targeted region was amplified by PCR. Sanger sequencing results were analyzed using the ICE tool to determine the INDEL rate, which is representative of the gene editing efficiency of the sgRNA.^[33]
To obtain optimal gene editing efficiency, we examined different Cas9 delivery approaches, including transfection or electroporation of Cas9 vector or mRNA, electroporation of Cas9-sgRNA RNP complex and sequential transfection of Cas9-mRNA and sgRNA. The gene editing efficiency varies from 20% INDEL to 80% INDEL with different delivery strategies. We constructed an engineered mammalian single-colony HEK-293 cell line that stably expresses Cas9 enzyme using the lentiviral approach. To quantify the activity of sgRNA, we delivered sgRNA1 to sgRNA6 into the HEK-293-Cas9 cells using lipofectamine RNAiMAX. One day after transfection, culturing medium was exchanged with fresh full-growth medium (DMEM with 10% FBS). Three days after transfection, genomic DNA was extracted from the cells, following by PCR amplification of the sgRNA targeted region. The PCR amplified DNA fragments were further analyzed by either the T7E1 nuclease digestion assay or by Sanger sequencing to quantify gene knockouts efficiency of the targeted region.^25,26 […]
Gene editing experiments were performed following previously reported protocols.^[2] For gene editing experiments using HEK-293-Cas9 cell line, 250 ng sgRNA and 0.5 μL Lipofectamine RNAiMAX were used to form the Lipo-RNA complex. The formed complex was added with 150 μL DMEM (10% FBS) containing 40K HEK-293-Cas9 cells. The transfection was performed in a 96-well plate format. 24 hours after transfection, cell medium was changed to complete DMEM medium. At day 4, genomic DNA was extracted using 80 μL QuickExtract™ DNA Extraction Solution (Lucigen, catalog number: QE09050). Following the manufacturer's protocol, the extraction solution was heated at 65° C. for 15 minutes and then at 95° C. for another 15 minutes. The resulting solution was diluted using water at a 1:10 ratio. The diluted product was directly used as a template for PCR amplification of the genomic region. For PCR amplification of the genomic region, Q5 HOTSTART HIFI DNA polymerase 2× master mix was used following the manufacturer's protocol without further optimization. The primers used for amplifying the DYRK1A and GRIN2B genome locus are listed below.
Crude PCR products were column purified using a Zymo DNA purification kit. The purified PCR amplicon was analyzed by Sanger sequencing to estimate INDEL % using the ICE tool.^[3] The wt-sgRNA gene editing INDEL % was usually around 70-80% following this protocol.

HEK-293 cells = test: Gene editing in HEK-293 wild-type cell line with Cas9 mRNA transfected one day before sgRNA; type: cell-based; details: HEK-293 wild-type cells, Cas9 mRNA transfection; usual value
Procedure: For gene editing experiments performed using a HEK-293 wild-type cell line, mRNA encoding the Cas9 protein (Trilink, catalog number L-7206-20) was transfected into HEK-293 cells one day prior to sgRNA transfection. For mRNA transfection, Lipo-RNA complex was formed by using 500 ng mRNA, 0.9 μL Lipofectamine RNAiMAX in 50 μL total volume, combined with 150 μL DMEM complete medium containing 40K HEK-293 cells. At day 2, sgRNA transfection was performed following the protocol described in the previous section. The wt-sgRNA gene editing INDEL % was usually around 40-50% following this protocol.

Cas9 protein = target: T1, Cas9 protein (Streptococcus pyogenes serotype M1, UniProt Q99ZW2); test: In vitro binding assay, Cas9-sgRNA RNP formation (gel shift, native PAGE); details: 200 nM Cas9, 200 nM sgRNA
T1 construct: purchased NEB M0646T

Molecule: sgRNA-12: sgRNA targeting the sequence between the mCherry and GFP genes of the surrogate reporter, SEQ ID NO:40 (guide GTTCAGGGCTTGACCAACAC; listed as DNA, chemistry not fully specified)
- formation of Cas9-sgRNA-DNA ternary complex [1]: no Cas9-sgRNA-DNA complex was observed

Molecule: CCN(CC)c1ccc2c(C(CCCn3cc(COCCC(=O)NCCCCCCNCc4c[nH]c5nc(N)[nH]c(=O)c45)nn3)OC(=O)NCCCCCCNCc3c[nH]c4nc(N)[nH]c(=O)c34)cc(=O)oc2c1 (stereo not drawn) [preQ1-DEACM-preQ1]
- wavelength of light that photo-cleaves the linker [2]: 405-456 nm

Molecule: COc1cc(C(C)OC(=O)NCCCCCCNCc2c[nH]c3nc(N)[nH]c(=O)c23)c([N+](=O)[O-])cc1OCCCC(=O)NCCOCCOCCOCCOCc1cn(CC(=O)NCCCCCCNCc2c[nH]c3nc(N)[nH]c(=O)c23)nn1 (stereo not drawn) [preQ1-NB-preQ1]
- wavelength of light that photo-cleaves the linker [2]: 356-390 nm and 390 nm

B1: sgRNA-7: sgRNA with two Tag sequences inserted at both the tetraloop and stem loop 2, SEQ ID NO:15 (nucleic acid)
guide: NNNNNNNNNNNNNNNNNNNNGTTTTAGAGCTAGCAGACTGTAAATCTGCTAGCAAGTTAAAATAAGGCTAGTCCGTTATCAACTTGCAGACTGTAAATCTGCAAGTGGCACCGAGTCGGTGC
modifications: listed as DNA, chemistry not given here
- INDELs (DYRK1A genome locus; HEK-293 cells, clamped with preQ1-PEG10-preQ1 and gel purified, versus unmodified (linear) form): 80.7%
- gene editing activity (INDEL rate) of unmodified sgRNA (DYRK1A genome locus): wild-type level gene editing activity; also recorded: did not compromise gene editing activity
- integrity of unlabeled sgRNA under 456 nm irradiation ([2]; 456 nm LED, 3 minutes): harmless to the integrity

B2: sgRNA-3: sgRNA with 17-nt Tag stem loop substituted for stem loop 1, SEQ ID NO:11 (nucleic acid)
guide: NNNNNNNNNNNNNNNNNNNNGTTTTAGAGCTAGAAATAGCAAGTTAAAATAAGGCGCAGACTGTAAATCTGCGTCCGTTATCAACTTGAAAAAGTGGCACCGAGTCGGTGC
modifications: listed as DNA, chemistry not given here
- gene editing activity (INDEL rate) of unmodified sgRNA (DYRK1A genome locus): significantly reduced activity

B3: sgRNA-1: sgRNA with 17-nt Tag inserted at the 5′-end, SEQ ID NO:9 (nucleic acid)
guide: GCAGACTGTAAATCTGCTTTTNNNNNNNNNNNNNNNNNNNNGTTTTAGAGCTAGAAATAGCAAGTTAAAATAAGGCTAGTCCGTTATCAACTTGAAAAAGTGGCACCGAGTCGGTGC
modifications: listed as DNA, chemistry not given here
- gene editing activity (INDEL rate) of unmodified sgRNA (DYRK1A genome locus): significantly reduced activity

B4: wt-sgRNA: wild-type single-guide RNA, SEQ ID NO:8 (nucleic acid)
guide: CTAATACGACTCACTATANNNNNNNNNNNNNNNNNNNNGTTTTAGAGCTAGAAATAGCAAGTTAAAATAAGGCTAGTCCGTTATCAACTTGAAAAAGTGGCACCGAGTCGGTGCTTTTTT
modifications: target site or template, no part of the molecule; listed as DNA, chemistry not given here
- gene editing INDEL % (DYRK1A genome locus; HEK-293-Cas9 cell line protocol, usual value): 70-80%
- gene editing INDEL % (HEK-293 cells): 40-50%

B5: sgRNA-5: sgRNA with 17-nt Tag stem loop substituted for stem loop 3, SEQ ID NO:13 (nucleic acid)
guide: NNNNNNNNNNNNNNNNNNNNGTTTTAGAGCTAGAAATAGCAAGTTAAAATAAGGCTAGTCCGTTATCAACTTGAAAAAGTGGCACCGAGCAGACTGTAAATCTGCTCGGTGC
modifications: listed as DNA, chemistry not given here
- gene editing activity (INDEL rate) of unmodified sgRNA (DYRK1A genome locus): significantly reduced activity

B6: sgRNA-4: sgRNA with 17-nt Tag stem loop substituted for stem loop 2, SEQ ID NO:12 (nucleic acid)
guide: NNNNNNNNNNNNNNNNNNNNGTTTTAGAGCTAGAAATAGCAAGTTAAAATAAGGCTAGTCCGTTATCAACTTGCAGACTGTAAATCTGCAAGTGGCACCGAGTCGGTGC
modifications: listed as DNA, chemistry not given here
- gene editing activity (INDEL rate) of unmodified sgRNA (DYRK1A genome locus): wild-type level gene editing activity; also recorded: retained wild-type level activity

B7: sgRNA-9: sgRNA-7 with Tag stems truncated by 4 base pairs, SEQ ID NO:17; targets DYRK1A (nucleic acid)
guide: NNNNNNNNNNNNNNNNNNNNGTTTTAGAGCTAACTGTAAATTAGCAAGTTAAAATAAGGCTAGTCCGTTATCAACTTACTGTAAATAAGTGGCACCGAGTCGGTGC
modifications: chemistry not given here
notes: targets DYRK1A
- formation of Cas9-sgRNA RNP (Cas9 protein): observed; also recorded: detected in lane 4
- formation of Cas9-sgRNA-DNA ternary complex [1]: observed the formation of the Cas9-sgRNA-DNA ternary complex; also recorded: detected in lane 5

B8: sgRNA-2: sgRNA with 17-nt Tag stem loop substituted for the tetra loop, SEQ ID NO:10 (nucleic acid)
guide: NNNNNNNNNNNNNNNNNNNNGTTTTAGAGCTAGCAGACTGTAAATCTGCTAGCAAGTTAAAATAAGGCTAGTCCGTTATCAACTTGAAAAAGTGGCACCGAGTCGGTGC
modifications: listed as DNA, chemistry not given here
- gene editing activity (INDEL rate) of unmodified sgRNA (DYRK1A genome locus): wild-type level gene editing activity; also recorded: retained wild-type level activity
